Data on 7 molecules can be found in patent publication US20170022273A1 (SORRENTO THERAPEUTICS, published 2017).

Experiment [1] concerns the target T1, Recombinant human LAG3/His (human, UniProt P18627 23-450).
T1 construct: Analyte in the Biacore assay, serially diluted in HBS-EP; not shown: His tag
T1 sequence (looked up): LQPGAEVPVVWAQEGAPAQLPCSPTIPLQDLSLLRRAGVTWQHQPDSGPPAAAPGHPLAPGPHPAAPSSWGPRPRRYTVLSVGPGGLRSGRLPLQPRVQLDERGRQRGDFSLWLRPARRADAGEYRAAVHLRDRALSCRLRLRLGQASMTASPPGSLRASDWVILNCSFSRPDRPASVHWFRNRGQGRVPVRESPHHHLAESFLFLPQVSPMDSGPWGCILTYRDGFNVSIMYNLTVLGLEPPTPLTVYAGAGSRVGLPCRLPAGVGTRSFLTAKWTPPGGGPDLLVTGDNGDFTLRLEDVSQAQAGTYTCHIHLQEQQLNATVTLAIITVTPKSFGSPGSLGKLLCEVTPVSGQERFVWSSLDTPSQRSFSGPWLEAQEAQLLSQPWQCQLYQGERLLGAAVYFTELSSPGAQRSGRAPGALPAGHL
The experiment in a line: Biacore SPR, antibody captured on anti-human Fc CM5 chip, LAG3/His as analyte, 1:1 Langmuir fit. Here is the method: The binding affinity of antibody L3C5 for human LAG3 was also tested using a BiaCore assay. […] Biacore was used to measure the affinity of LAG3 antibody L3C5. Anti-human Fc antibody (GE, BR-1008-39) was immobilized on CM5 sensor chip to approximately 5000 RU using standard NHS/EDC coupling methodology. Antibody (approximately 2 ug/ml) were captured for 60 s at a flow rate 10 uL/min. Recombinant human LAG3/His was serially diluted in running buffer (HBS-EP). All measurements were conducted with a flow rate of 30 μL/min Surfaces were regenerated with 3M MgCl2 (from human antibody kit) for 60 s. A 1:1 (Langmuir) binding model was used to fit the data.
(SPR reads the build-up and loss of mass on a sensor chip optically.)

For experiment [2], the target named is T2, recombinant human LAG3/Fc (human, UniProt P18627 23-450).
T2 construct: Coated on the ELISA plate at 2 ug/mL; not shown: Fc part of the LAG3/Fc fusion
T2 sequence (looked up): T1 sequence (looked up)
The experiment can be described thus: ELISA, plate coated with 2 ug/mL recombinant human LAG3/Fc, IgG about 5ug/ml. Here is the method:
(§1) An analysis of the cross-reactivity of various LAG3 antibodies to recombinant mouse LAG3 and human LAG3 was also performed. A Maxisorb ELISA plate was coated with 2 ug/mL recombinant human, and mouse LAG3/Fc (blank: PBS). Incubated overnight at 4° C. The plate was washed 3 times with PBS-Tween (PBST), then blocked with Casein blocking buffer for 1 hour at room temperature. Next, IgGs diluted in casein (about 5ug/ml) were added, and incubated 30 min with shaking. The plate was washed 3 times with PBST. Horseradish peroxidase (HRP)-conjugated goat anti-human Lambda HRP (1:1000 in casein) was added, then 3,3′,5,5′-Tetramethylbenzidine (TMB) was added as substrate and developed 30 min 2M H2SO4 was used to stop the reaction and the OD was read at 450 nm Anti-AIP antibody C7 was used as a control antibody.
On the technique in general: An ELISA detects its analyte on a solid surface through an enzyme-linked reagent.

Experiment [3] deals with T3, recombinant mouse LAG3/Fc (mouse, UniProt Q61790 24-442).
T3 construct: Coated on the ELISA plate at 2 ug/mL; not shown: Fc part of the LAG3/Fc fusion
T3 sequence (looked up): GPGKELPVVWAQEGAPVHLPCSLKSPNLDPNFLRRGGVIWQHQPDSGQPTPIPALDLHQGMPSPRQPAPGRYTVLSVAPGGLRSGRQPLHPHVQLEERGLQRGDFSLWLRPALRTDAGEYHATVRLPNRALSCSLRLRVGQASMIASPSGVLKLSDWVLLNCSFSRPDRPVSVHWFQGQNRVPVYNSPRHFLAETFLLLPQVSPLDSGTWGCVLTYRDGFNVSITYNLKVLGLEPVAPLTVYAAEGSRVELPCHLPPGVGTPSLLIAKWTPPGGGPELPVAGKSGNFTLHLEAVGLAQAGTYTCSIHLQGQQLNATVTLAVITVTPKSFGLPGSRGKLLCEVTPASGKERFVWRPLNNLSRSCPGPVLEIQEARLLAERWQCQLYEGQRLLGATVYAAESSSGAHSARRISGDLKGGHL
The experiment in a line: ELISA, plate coated with 2 ug/mL recombinant mouse LAG3/Fc, anti-human Lambda HRP detection. Here is the method: as §1

Where a chain is given by its changes, count along the chain named.

B1: L3C5 (antibody, V domains shown)
VH: QVQLVQSGSELKKPGASVKVSCKASGYTFTNYYMHWVRQAPGQGLEWMGIINPSGGATNYAQKFQGRVTMTRDTSTSTVYMELSSLRSEDTAVYYCARDSGYDLGYGMDVWGQGTLVTVSS
VL: QSVLTQPASVSGSPGQSITISCTGTSSDVGGYNYVSWYQQHPGKAPKLMIYDVSNRPSGASNRFSGSKSGNTASLTISGLQAEDEADYYCSSYTNRNTLLFGGGTKLTVL
notes: Captured on an anti-human Fc antibody chip in the Biacore assay, so a whole antibody with a human Fc; also called LAG3 antibody L3C5; 13
In general, Kd refers to the free concentration of one partner at which half of the binding sites on the other are occupied at equilibrium, for simple one-to-one binding. One may read the koff as the rate constant with which the complex falls apart. What is called kon is a measure of how fast the partners come together. For B1, in experiment [1], the Ka was found to be 6.6e+06 M⁻¹, the Kd came to 152 nM, the off-rate (koff) came to 0.0717 s⁻¹ and the kon was found to be 473000 M⁻¹ s⁻¹.

B2: L33H11 (antibody, V domains shown)
VH: QVQLVQSGAEVKKPGASVKVSCKASGYTFTSYYMHWVRQAPGQGLEWMGIINPSAGSTSYAQKFQGRVTMTRDTSTSTVYMELSSLRSEDTAVYYCARELMATGGFDYWGQGTLVTVSS
VL: B1 VL with Q1L, S2P, S54T, A60V, N95S, R96S, K106Q
notes: Tested as a fully human IgG with a lambda light chain; also called anti-hLAG3 antibody L33H11
With B2, the binding result is “binds” in experiment [2] and “no binding (tested: about 5ug/ml)” in experiment [3].

B3: L32D10 (antibody, V domains shown)
VH: B2 VH
VL: B1 VL with A8P, V10A, I18V, N33D, P42Q, A60V, N95S, R96S, N97T, L100V
notes: Tested as a fully human IgG with a lambda light chain; also called anti-hLAG3 antibody L32D10
In the case of B3, the binding result is on record as “binds” in experiment [2] and “no binding (tested: about 5ug/ml)” in experiment [3].

B4: L35G6 (antibody, V domains shown)
VH: B2 VH
VL: QAGLTQPASVSGSPGQSITISCTGSSSDVGGYSYVSWYQKHPGKAPKLMIYDVTNRPSGVSNRFSGSKSGNTASLTISGLQAEDEADYYCSTYTRSNTLVFGPGTKVTVL
notes: Tested as a fully human IgG with a lambda light chain (detected with anti-human Lambda HRP); also called anti-hLAG3 antibody L35G6
As for B4, the binding result in experiment [2] is given as “binds”; in experiment [3] it was “no binding (tested: about 5ug/ml)”.

B5: L35D4 (antibody, V domains shown)
VH: B2 VH
VL: QSVLTQPPSASGSPGQSVTISCTGTSSDVGGYNYVSWYQQYPGKAPRLMIFEVTERASGVPDRFSGSKSGNTASLTVSGLQTEDEAVYFCSSYSGSNNPGAMFGGGTKLTVL
notes: Tested as a fully human IgG with a lambda light chain; also called anti-hLAG3 antibody L35D4
B5: the binding result in experiment [2] was “binds”; in experiment [3], “no binding (tested: about 5ug/ml)”.

B6: L32A9 (antibody, V domains shown)
VH: B2 VH
VL: QSVVTQPPSVSAAPGQKVTISCSGSSSNIGNNYVSWYQQLPGTAPKLLIYDNNKRHSGIPDRFSGSTSDTSATLGITRLQTGDEADYYCGTWDSSLSAYVFGTGTKVTVL
notes: Tested as a fully human IgG with a lambda light chain; also called anti-hLAG3 antibody L32A9
For the molecule B6, the figures for the binding result in experiment [2] and in experiment [3] were “binds” and “no binding (tested: about 5ug/ml)”, respectively.

B7: L32A4 (antibody, V domains shown)
VH: B2 VH
VL: QSVLTQPASVSGSPGQSITISCTGTSSDIGAYNFVSWYQQHPGKAPKLMIYGVSNRPSGVSSRFSGSKSGSTASLTISGLQAEDEADYYCSSYTTSGSAVFGTGTKLTVL
notes: Tested as a fully human IgG with a lambda light chain; also called anti-hLAG3 antibody L32A4
B7: the binding result in experiment [2] is “binds”; in experiment [3] it was “no binding (tested: about 5ug/ml)”.
